Results taken from US20230226096A1 (Orna Therapeutics, Inc., priority 2020, published 2023).

B1: Livupivirus (nucleic acid, listed as Livupivirus sp.)
DNA: TATCTACATGGGGATCCAGGCTGTATGGAATGTCTGTCTTAACAAGCACTATACCAGAAAGATCCACCCAAAGTGGTGGGACTGGGACTGTGAGGTGAGAAATCCCGAAACCAGCCTTCTCAAGCGTCGGACGATCTTTCTGTTTTAGTGAACACCTTGCCTTTTAAATGGATGACAACACCCCTTCAGCAAATCGCAATCTGAAATCCCAAAAGACTGTTTAGCCGAACTCTGGTAATCACTCCGGAGAAGTAGGATACGCAGCCCCTGTGGACTCTTGATTTCAGGACTCAAGGTAGCTAGAGCTGGAACTTCATGGAATGACAAAGGAATATATGCACATTGTGCGCTTTCCTGGCCTTGTAGCCCGTCGTGAGGATATGTCGTTGGGAATCGACATCTTAGTCCAGTACTGCTTGATAGAGTGTCGGCTGGCACAGTTACCTGAGAATAAGTCAGTTGTACTTAACATGAACAAAAAAAATAACTACCACAACTACCACAATCTACCAATACTTGAATTATGCTGAATCTCGTACAGTAAAAACGTTCCGTGGAAGGACAAGTATTGAAGTGCGGTTACATCATCCGATACGCGCTGGATCCCTCA
B2: Ludopivirus (nucleic acid, listed as Ludopivirus sp.)
DNA: TAGACCCCCACCTAGCCCTTTTCCCCGTCAGTGGGGGGCTTACTCACTGGGCATCTGTTAATCTGGCCTAACTAGATTGACACCACTCCCTTGGAACGTAACTCCACGCTAACTCACTGGCTCTACGCACAGACACACGGTCTTTCTGCTATCCCCGGGGAAGATACCAGATGGCGACCGGCTGTCCCAGCGGCCTAGTAGCTACTCGGGTTGAGTACCCACCACGGTTTTGACGCCTGCTAAAATTCAAGAGACAGAGGTAGGGGTGCTTAGTGTGTGGGGGAAGTTCCCACAAGCGAGGCAAAGCATTGCTCCCTCGCGTCACCGGGTGCAAGGTAAATTGGCTGGACTTCCGCTCTACCCTTGCTACTCGCCCTCTTCGGAGGGTTCGAAGTGACACTAGGTATACGCATGGTTGGGAAACCATGCCTGGCCTACTACTGGGTGATAGCCTGGCGGCGGGTCCGTCTCTTGGCTTATACCCGTTGATTTGGGAT
B3: Porcine enterovirus 9 (nucleic acid, listed as Enterovirus sp.)
DNA: GAACCTTAGAAGTTTACACAAACAAAGACCAATAGGAGTCCAACACCCAGTTGGATTGCGGTCAAGCACTTCTGTTTCCCCGGACCTAGTAGTGATAGGCTGTACCCACGGCCGAAGATGAACCCGTCCGTTATCCGGCTACCTACTTCGGGAAGCCTAGTAACATTCTGAAGTCTCTGAGGCGTTTCGCTCAGCACGACCCCGGTGTAGATCGGGCTGATGGGTCTCCGCATACCCCACGGGCGACCGTGGCGGAGGCCGCGTTGGCGGCCCGCCTATGGCGAAAGCCATAGGACGCCTCTTAGATGACAGGGTGTGAAGAGCCTACTGAGCTGGGTAGTAGTCCTCCGGCCCCTGAATGCGGCTAATCCTAACCACGGAGCGTCCACCAGCAATCCAGCTGGCAGGGCGTCGTAACGGGCAACTCTGTGGCGGAACCGACTACTTTGGGTGTCCGTGTTTCCTTTTGATCCTATTTTGGCTGCTTATGGTGACAACGATAAGTTGTTATCATAAAGCTCTTGGGTTGGCCACCTGGAAAAAGTTATCAGTGTTTGATATTGTTCGGCTCTCACGCCTACCAATAAGACAAGCCCTATATTTACTTGTTGCATTTTACTCGTCAGAAGAAATCACAGAGTATCATTTGGATTTGTTACTCACATTAAGGACAAG
B4: Pigeon picornavirus B (nucleic acid)
DNA: TTTATTTAGCTGTTAAGTTTTATTTGTGCCGAGACCCCATAGTAGGATCTTGGTGTTCCACATTAAGCTCTCCCGACCACACATCCAAACGATAGGCGGTGTAAGGGCTCCCTGGCTAAGTGTTTACTCATTGCTAGGGAAGTGTTGCGACCCGTTACCAGTAGGAATACAGGAGGTCTTAGTTGCCTAACCAGATAAAGTGGTGCTGAAATATTGCAAGCTCAATGTCTGGCGAACGACGGACTACCGTTGAACTATTGTTAACGCCCGCGTGTGTAGGCAACACACGGGTTAGTAGGTCACTTACATTGACATCCGTGCCGGGAAAGCGGATCTGAGCTATCGATTGCCTGATAGGGTGCCGGCGGGCGCGGTACGTGTGGTATAGTCCGCTGTCTTGGGGTATGGCGTCTACTCGGTTTTGTTGTCGTTTTGGAATGTCCCATGTCGGAGATGTCGTTACCGGTGTTTGCTTTACTTGTGCACGAATAAGAAAACAGAGTTTGGAGTTTTGGAAGTTAATGGATAACATCAAGTTTCCATTGCGTTCCTCGTGCATTTTAGGCCAGAAAATCGACCACAAAATCGAGA
B5: Rodent hepatovirus (nucleic acid, listed as Hepatovirus sp.)
DNA: TTCAAAGAGGGGTCCGGGATTTTCCTGGTCCCCCTCTTTGGGCACCCTTGGCTCGGGGGTGTGAATACCGTGCTCGCGTTTGCCGTGCGTTAACGGCTTCATTTATGTTTGTTTGTCTGTTTTATTATGTTGGTTTGTCTGTTTGTTATGTTGGTATTGTTCGTGTTTAATGTTATGACCACATTACACTCCAGCCAATGAAGAACAGATGGTGCGGTTATTGCTGGCGGAATTCCTAACGTCCTGGATCCGTTGGTACGCATCACAAAACAATTTGCAGAGAGAGTGGTGAAACGGCTTGGGAATCCCTGAGTACAGGGAAATCACACTGATAGCTCATCTTGGCTGTTTTCAGTCATGGACCTTATGCAGTGTAATTTGGGTGTACCCCCCATAGCTTAGGAGGAATGTTCTGTCTTGGCACTAGAGTGGGACGCTGATGCCTCCGTGTCTAGGATGGTCTAAGGGACAGAATGGGGTGCCTCTGATGCCATACTACCTGATAGGGTGCTCTCACGGCCTCTGCATCTTAGTGAGAAGTTCAATTTT
B6: Rabovirus A (nucleic acid)
DNA: CTACGGATATTTGCATGACCCGCTTTCTATCGCCCCAACAATCCCCTTTGTAACCACAAGCTTTACTCAGGCTAGCAGCCCGACTAGCTGTTTGGAAGAAAAGGCTAGGGCACACACCAACAACACCGACCCCACTGGTCGAAGGCCGCTTGGCAATAAGACTGGTGGAACAGGGTCGCCTGTAGTTGTTTGGAACATTCTTTCTAATGACTTTGTCAGCGGTGCTACTCACACCGTAACTCTTCTACCCTATCCCCACGCTTGTGGAACTAGGAGGGGATGAGTGATTCAAGTAAGTACTGTCAGAATGGTGAAAATGATCTGATTCTGAAACGCTATGGATCCATCGAAAGATGGGGCTACACGCCTGCGGAACAACACATGGTAACATGTGCCCCAGGGGCCGAAAGCCACGGTGATAGGATCACCCGTGTAGTTTGAGATCATATCAATGTTCATAGTCTAGTAAGATGATTTGAAATCTAACTGAGCTGATGGCTAACTGCTTGTCTTATTGCGGCCTAAGGATGTCCTGCAGGTACCTTTAGATAACCTTAAGAGACTATTGATCTGAGCAGGAGCCAAAGTGGTCTTTCCCAGCTTTGGTTAAAAAACGTCTAAGCCGCGGCAGGGGGCGGGAGGCCCCCTTTCCTCCCAAAACTTAATATTGATTGT
modifications: Rabovirus A
B7: Picornavirales Tottori-HG1 (nucleic acid)
DNA: AGCCATGAACTAGTGTGCGATTCCCACAGTGTTGGTCGAAAGCCCCGCACTGTCTACTCGCATATTTGACTCCAGTCCTTCCGCAGCCAGCGGTTAGGTTCTGGTTAAAGTGCATTATGTGCACGGCGCCACGCAGAACTGCCAGAAATGGTAAGCTGCGCCCAACGCCAACGGTTTGTGTATCCCGTTAGTCACACGTTTACAGCTGTTCGTTAACAGTAGGGTTTTGTCGACCCGGACCCCTTAATGCGCGCGAATTCAACCGCGCCTAGTCGGCAATGGTATCATTTAATCCCATGCACTACGGGAGAAATTTGAGACCAAAGAATTCCTGAGGGCCACTGCTTGCTCTAAGTGCAATGCCTCGGGAGACTTCTGTCAGGAGCCTAGCGGCTTTCAACCGCGACAGCTAACTCCTGCGGGATGTTTGGTGTCCATACTTACTGGCGTCCTCACAACGCTAAGTGGATGTTGTCCACAGGTAGGCAAACACCGAGCCCCACATTCAGGAGACCTGTATGAACGATCCTATCAGCATTAGAGTTGGAATTGGGTGTGCTAACGTCCGCATAAGTGCACCCCGTGGTAACGCTGGGAAACTATCCAGCGCAACGTACTGTCCTCAATGTCTAGGGAAGGACCGCCCTAAGCGTACAACCGGGCCATGTGTCGAGC
B8: Quail picornavirus QPV1 (nucleic acid)
DNA: TTTGCATCAGTTCGCCCCTCCCCTCACCATACCTTTTTCCCCTCTTTAGGACTGATACTTGGTTATGATGAGCAGAGGATTTCGCAAGTTATGCTTCTTGATAAAAAGTAATTCACGAATCATGGGATTATAGCCTGGAAGTGAACACTCATGTGGCAAGTGGGTTAGTAGCTCTCCATGTTCCCATGTGCAGTGGACTGACAACAGTGAGTTCGGGGTTGTGTAGTAAAGGGAAAGTATTACTTACCCGCACCTGCTATACGTGGTGTACGTAGGATACGAGTTAGTAGTGCTTAGCAACTTTAAACTGGTGCTGAAATATTGCAAGGTCACTGAAGTTGTGAACGCGAACGCTCCGCCACTGCCATGTATAGCGTGCAATGCATAAATGGTGCACTACATGATACGAGGGAATGGGAAACCCTCCATGGCCGAATGCAGGGTGACAGCCTGCCGGCGGATGCCTGTTGTTAGTATAATCCGTTGTTTGCCAC
B9: Picornavirus HK21 (nucleic acid)
DNA: AAACGGGAGGATCGGCTTTGGCTTATCCTCTTAATAGTCTACAAAACTGGGCTGACTGGTGGGGGAGCTACTAGATCCGGGAGAGGACTAGTTACCCCGCGTAACTTCCCTTTTTGTCACTCCCTCCACCTACCCCTTCCCTGTCCCTTAGACTCTTAAGTAGGTGTGCAGGCCTGGCCCCCCGGAAATGGGCAAATCGGACGTTTGCGTGTAGGGTCGTTCTGAAAGGTGGGGCCCACTCCACCGTAGTAGGATCTTCCTGTTTCACGTTTAAACCTCTCCGGGCAGGTATCGCTAGACACTAGGCTGTATAGGATGGCACGCACTTAGGTTTCGCACCTTCCTAGTGCGCCAAGATCCCGCTTTTGAGCTCAAGTACATGGTTCTTTGTAAGATGTCTAACCAGAGGAGGTGGTGCTGAAATATTGCAAGCCACTCTGGCGAACGTCCACTGCATTGCCTGGAACAGGCTCTCTAGCGCCCTCCACTGGTAGCGCGGTGGTGGGTTAGTAGGATACCTATATGGACAGGGGATGCGGGAATACCCCTCACTAGCTAGTGACTGGTTGATCGACTGGCGGCGGATCCAGTGATACTTGCATAATCCGCAGACTTGGGAG
B10: Porcine reproductive and respiratory syndrome virus 2 (nucleic acid)
DNA: ATGACGTATAGGTGTTGGCTCTATGCCTTGGCATTTGTATTGTCAGGAGCTGTGACCATTGGCACAGCCCAAAACTTGCTGCACAGAAACACCCTTCTGTGATAGCCTCCTTCAGGGGAGCTTAGGGTTTGTCCCTAGCACCTTGCTTCCGGAGTTGCACTGCTTTACGGTCTCTCCACCCCTTTAACC

System: HEK293 cells
Assay type: cell-based, human
Conditions: luminescence from secreted Gluc in supernatant 24 hours after transfection of HEK293 cells; circular RNA encoding Gluc with the named IRES (UTR truncated to 675 nt)

Row | Molecule | Expression
1 | B1 | 2.10E+05
2 | B2 | 1.05E+05
3 | B3 | 3.20E+07
4 | B4 | 1.24E+05
5 | B5 | 1.39E+05
6 | B6 | 2.88E+06
7 | B7 | 9.54E+04
8 | B8 | 6.55E+07
9 | B9 | 4.09E+05
10 | B10 | 1.29E+05
